For this assay, the target named is SARS-COV-2RBD (SARS-CoV-2, UniProt P0DTC2 319-541). Nature of the assay: ELISA, RBD coated at 2 μg/mL, 293T transfection supernatant, anti-human IgG-ALP detection. On the technique in general: ELISA stands for enzyme-linked immunosorbent assay.

B1: 单抗18-CQTS063 (antibody, V domains shown)
VH: QVQLVQSGAEVKKPGSSVKVSCKASGGTFSSYAISWVRQAPGQGLEWMGGIIPIFGTANYAQKFQGRVTITADESTSTAYMELSSLRSEDTAVYYCATDGGGGSYYYAHYYYGMDVWGQGTTVTVSS
VL: QTVVTQEPSFSVSPGGTVTLTCGLSSGSVPTSYFPSWYQQTPGQAPRTLIYGTNTRSSGVPDRFSGSILGNKAALTITGAQADDESDYYCVLYMGSGIVVFGGGTKLTVL
As for B1, the binding result is given as “binds”.

B2: 单抗17-CQTS062 (antibody, V domains shown)
VH: EVQLVESGGGLVQPGRSLRLSCAASGFTFDDYAMHWVRQAPGKGLEWVSGISWNSDSIGYADSVKGRFTISRDNAKNSLYLQMNSLRAEDTALYYCAKDLSSGWDLFDYWGQGTLVTVSS
VL: SYVLTQPPSVSVAPGKTARITCGGNNIGSKSVHWYQQKPGQAPVLVIYYDSDRPSGIPERFSGSNSGNTATLSISRVEAGDEAGYYCQVWDTSGDPLVFGGGTKLTVL
As to B2, the binding result is “binds”.

B3: 单抗14-CQTS058 (antibody, V domains shown)
VH: EVQLVESGGGLVQPGRSLRLSCAASGFTFDDYAMHWVRQAPGKGLEWVSGISWSSGSIVYADSVKGRFTVSRDNAKNSLYLQMNSLRVEDTAFYYCAKDMVAGPHYYGMDVWGQGTTVTVSS
VL: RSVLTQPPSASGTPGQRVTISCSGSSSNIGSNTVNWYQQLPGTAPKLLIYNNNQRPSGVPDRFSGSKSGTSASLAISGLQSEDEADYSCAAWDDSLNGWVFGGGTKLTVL
Turning to B3, the binding result is “binds”.

B4: 单抗11-CQTS055 (antibody, V domains shown)
VH: EVQLVESGGGLVQPGGSLRLSCAASGFTFSNYDMHWVRQGTGKGLEWVSAIGTAGDTYYPGSVKGRFTISRENAKNSLYLQMNSLRAGDTALYYCARVGYYGSGSYPLYWYFDLWGRGTLVTVSS
VL: DIQMTPSPSSLSASVGDRVTITCRASQSISIYLNWYQQKPGKAPKLLIYAASNLQSGVPSRFSGSGSGTEFTLTISSLQPEDFATYFCQQSYSAPPWTFGQGTRVEIR
notes: also called 实施例1的新冠病毒RBD特异性单克隆抗体
As to B4, the binding result is “binds”.

B5: 单抗12-CQTS056 (antibody, V domains shown)
VH: EVQLVQSGAEVKKPGESLKISCQGSGFSFSNYWIGWVRQMPGKGLEWMGIIYPDDSDTRYSPSFQGQVTISADKSISTAFLQWSSLKASDTAMYYCATRTGWTNDAFDIWGQGTMVTVSS
VL: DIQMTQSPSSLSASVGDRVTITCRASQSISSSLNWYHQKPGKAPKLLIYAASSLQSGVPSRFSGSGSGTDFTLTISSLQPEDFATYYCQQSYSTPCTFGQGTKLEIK
In the case of B5, the binding result is given as “binds”.

B6: 单抗19-CQTS064 (antibody, V domains shown)
VH: EVQLVQSGAEVKKPGESLKISCEGSGYSFISYWIGWVRQMPGKGLEWMGIIYPGDSDTRYSPSFQGQVTISADRSISTAYLQWSSLKASDTAMYYCVRSDGDYVIGHDYWGQGTLVTVSS
VL: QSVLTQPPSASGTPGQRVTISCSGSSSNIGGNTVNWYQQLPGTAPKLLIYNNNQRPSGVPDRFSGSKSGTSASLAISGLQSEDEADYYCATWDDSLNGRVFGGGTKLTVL
In the case of B6, the binding result is “binds”.

B7: 单抗20-CQTS065 (antibody, V domains shown)
VH: EMQLVESGGGLVQPGGSLRLSCAASGFTFSTYEMNWVRQAPGKGLEWVSYISSSTNSIYYAGSVQGRFTISRGNAKNSLYLQMNSLRAEDTAVYYCARGRDDYGDYRGGDFDYWGQGTLVTVSS
VL: QIVLTQSPATLSLSPGERATLSCRASQSVTTYLAWYQQKPGQAPRLLIYDASHRATGIPARFSGSGSGTDFTLTISSLEPEDFAVYYCQQRSNWPPITFGPGTKVEIK
Consider B7, for which the binding result is reported as “binds”.

B8: 单抗13-CQTS057 (antibody, V domains shown)
VH: QVTLRESGPALVKPTQTLTLTCTFSGFSLSTSGMCVSWIRQPPGKALEWLARIDWDDDKYYSTSLRTRLTISKDTSKNLVVLTMTNMDPVDTATYYCALGRAGTMDYWGQGTLVTVSS
VL: DIQMTQSPSSLSASVGDRVTITCRASQSIRSYLNWYQQKPGKAPKVLIYAASSLQSGVPSRFSGSGSGTDFTLTISSLQPGDFATYYCQQSYSPPYTFGQGTKLEIK
Turning to B8, the binding result is reported as “binds”.

B9: 单抗16-CQTS061 (antibody, V domains shown)
VH: EVQLVESGGGLVQPGGSLRLSCAASGFTVISNYMSWVRQAPGKGLEWVSVIYRGGSTYFADSVKGRFTISRDNSKNTLYLQMNSLRAEDTAVYYCARLASDGSGSYLDYFDYWGQGTLVTVSS
VL: QSVLTQPPSVSGAPGQRVTISCTGSSSNIGADYDVHWYQQFPGTAPKLLIYGNSNRPSGVPDRFSGSKSGTSASLAITGLQAEDEADYYCQSYDSSLSGSWVFGGGTKLTVL
As to B9, the binding result is listed as “binds”.

B10: 单抗15-CQTS059 (antibody, V domains shown)
VH: EVQLVQSGAEVKKPGESLKISCKASGYRFTNYWTVWVRQMPGKGLEWMGIIYPGDSEIRYSPPFQGQVTISADKSISTAYLQWSSLKASDTAMYYCARHPSNFYDSGGDYYAMDVWGQGTPVTVSS
VL: QSALTQPASVSGSPGQSITISCTGTSSNVGNYDLVSWYQQHPGKAPKLMIYEVNKRPSGVSDRFSGSKSGNTASLTISGLQAEDEADFYCCSYAGSSSWVFGGGTKVTVL
Consider B10, for which the binding result is reported as “binds”.
